Experimental findings from US20150111246A1, “SITE-SPECIFIC ENZYMATIC MODIFICATION OF EXENDINS AND ANALOGS THEREOF” (priority 2012, published 2015) are described below.

Assay [1] concerns the target GLP-1 receptor (UniProt P32301). The experiment in a line: cell-based or functional assay.
Assay [2] shares this target. Nature of the assay: radioligand displacement, RINm5F cell membranes, [125I]GLP-1 (or exendin) tracer. On the technique in general: Loss of bound radioactivity is the signal in a displacement assay; it reports binding, not function.
Assay [3] has as its target T1, GLP-1 receptor (Rattus norvegicus, UniProt P32301).
T1 construct: endogenous in cells; host or cells: RINm5F cell membranes
T1 sequence (P32301 22-463): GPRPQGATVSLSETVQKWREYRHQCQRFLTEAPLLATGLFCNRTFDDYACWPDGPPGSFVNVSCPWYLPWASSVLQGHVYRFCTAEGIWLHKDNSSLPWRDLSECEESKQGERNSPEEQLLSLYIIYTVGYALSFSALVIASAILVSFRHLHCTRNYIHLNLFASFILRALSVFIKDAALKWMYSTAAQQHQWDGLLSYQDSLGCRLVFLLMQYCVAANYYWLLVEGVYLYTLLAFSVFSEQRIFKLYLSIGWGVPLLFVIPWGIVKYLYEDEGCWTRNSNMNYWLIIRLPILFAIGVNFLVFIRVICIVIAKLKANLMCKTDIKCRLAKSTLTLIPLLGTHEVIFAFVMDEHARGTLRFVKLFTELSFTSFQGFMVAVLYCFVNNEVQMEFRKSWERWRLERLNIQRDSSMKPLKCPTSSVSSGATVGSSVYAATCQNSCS
The experiment in a line: GLP-1 receptor binding displacement assay. As to conditions: text of Examples 6, 7, 12. Here is the method: GLP-1 receptor binding and functional assays: GLP-1 receptor binding activity and affinity may be measured in any number of known methods. […] Reaction mixtures are filtered through glass filter pads presoaked with 0.3% PEI solution and rinsed with ice-cold phosphate buffered saline. Bound counts are determined using a scintillation counter. Binding affinities can be calculated using GraphPad Prism® software (GraphPad Software, Inc., San Diego, Calif.).

The target in assay [4] is T2, GLP-1 receptor (UniProt P32301 22-463, limits assumed).
T2 sequence (looked up): T1 sequence (P32301 22-463)
The experiment in a line: cell-based or functional assay.

Another assay addresses T3, GLP-1 receptor, P32301.
T3 chain: T1 sequence (P32301 22-463)
The experiment in a line: GLP-1 binding assay (radioligand displacement), as the filing names it.

Bridge positions count the residues as written; N and C are the ends. Peptide text beside a SMILES is read from it. * marks the point of attachment. NH(mPEG24) = COCCOCCOCCOCCOCCOCCOCCOCCOCCOCCOCCOCCOCCOCCOCCOCCOCCOCCOCCOCCOCCOCCOCCOCCN*

The IC50 is the midpoint of a concentration-inhibition curve. A high value points to lower potency. As for Exendin-4 (peptide), in the assay with GLP-1 receptor [1], the GLP-1 Function ED50 was 0.003 nM. Further, the IC50 in the assay with GLP-1 receptor [2] is 0.333 nM.
`CC[C@H](C)[C@H](NC(=O)[C@@H]1CCCN1C(=O)CNC(=O)[C@H](Cc1ccccc1)NC(=O)[C@H](CC(N)=O)NC(=O)[C@H](CC(N)=O)NC(=O)[C@H](CO)NC(=O)[C@H](CO)NC(=O)[C@H](Cc1c[nH]cn1)NC(=O)[C@@H](NC(=O)[C@H](CC(C)C)NC(=O)[C@H](Cc1ccccc1)NC(=O)[C@H](CC(N)=O)NC(=O)[C@H](C)NC(=O)[C@H](CC(C)C)NC(=O)[C@H](CCCNC(=N)N)NC(=O)[C@H](CCC(=O)NCCOCCOCCOCCOCCOCCOCCOCCOCCOCCOCCOCCOCCOCCOCCOCCOCCOCCOCCOCCOCCOCCOCCOCCOC)NC(=O)[C@@H](NC(=O)[C@H](C)NC(=O)[C@@H]1CSSC[C@H](NC(=O)[C@@H](N)CCCCN)C(=O)N[C@@H](CC(N)=O)C(=O)N[C@@H]([C@@H](C)O)C(=O)N[C@@H](C)C(=O)N[C@@H]([C@@H](C)O)C(=O)N1)[C@@H](C)O)C(C)C)C(=O)N[C@@H](CC(C)C)C(=O)N1CCC[C@H]1C(=O)N1CCC[C@H]1C(=O)N[C@H](C(=O)N[C@@H](CC(N)=O)C(=O)N[C@H](C(=O)NCC(=O)N[C@@H](CO)C(=O)N[C@@H](CC(N)=O)C(=O)N[C@H](C(=O)N[C@@H](Cc1ccc(O)cc1)C(N)=O)[C@@H](C)O)C(C)C)[C@@H](C)O` [Example 12] (H-KCNTATCATE(NH(mPEG24))RLANFLVHSSNNFGPILPPTNVGSNTY-NH2; disulfide 2-7; N-terminus and C-terminus assumed) showed an IC50 at GLP-1 receptor [3] of 80 nM.

B1: [des-^1H, ^2G(imidazoacetyl), ^13N, ^14L]-Exendin-4-^40Q biotin cadaverine amide adduct attached at ^40Q (MW 4564.46) (peptide)
peptide: GEGTFTSDLSKNLEEEAVRLFIEWLKNGGPSSGAPPPSQ
modifications: imidazoacetyl on Gly 2 in place of His 1; biotin cadaverine amide on the side chain of Gln 40
Turning to B1, the “EC50 in the GLP-1 functional assay” value in the assay with GLP-1 receptor [4] was 0.004 nM.
KCNTATCATQRLANFLVHSSNNFGPILPPTNVGSNTY (modifications not checked) [Pramlintide pegylated with m-dPEG24 amine at the glutamine at position 10]: the IC50 with GLP-1 receptor, P32301 was determined as 80 nM.
